Earlier results in patent US9506909B2, “Homoarginine as a biomarker for the risk of mortality” (Synlab Medizinisches Versorgungszentrum Heidelberg GmbH, priority 2010, dated 2016).

What was measured:
[1] = storage for 48 hours at room temperature or at 40 Celsius

BNP: active natriuretic hormone, 32 amino acids, cleaved from proBNP
in-vivo half-life (in vivo): 0.333 h
concentration loss on storage [1]: at least 20%

B1: NTproBNP: N-terminal pro peptide of proBNP, 76 amino acids, inactive counterpart of BNP (protein, UniProt P16860 27-102, looked up)
NT-proBNP: HPLGSPGSASDLETSGLQEQRNHLQGKLSELQVEQTSLEPLQESPRPTGVWKSREVATEGIRGHRKMVLYTLRAPR
modifications: NT-proBNP
in-vivo half-life, longer than that of BNP (printed as the difference to the half-life of BNP): 2 h
